B1: negative control motif (dsDNA)
DNA 1: TTTTCATGACGTCTTCTAA
DNA 2: TTAGAAGACGTCATGAAAA
B2: DIP0586 motif (iucA) (dsDNA)
DNA 1: TTAGGGTAGCTTCGCCTAA
DNA 2: TTAGGCGAAGCTACCCTAA
B3: DIP2304 motif (FpG) (dsDNA)
DNA 1: TTGGGGTGGCCTATCCTTA
DNA 2: TAAGGATAGGCCACCCCAA
B4: DIP0699 motif (secA) (dsDNA)
DNA 1: TTGTGTTAGCCTAGGCTAA
DNA 2: TTAGCCTAGGCTAACACAA
B5: DIP2272 motif (sortase) (dsDNA)
DNA 1: TGTGGGCACACCAACCTAA
DNA 2: TTAGGTTGGTGTGCCCACA
B6: DIP2161 motif (sidA) (dsDNA)
DNA 1: TTAGGGTAGGCTAATCCAA
DNA 2: TTGGATTAGCCTACCCTAA

The target in this data set is T1, IdeR (iron-dependent regulator) (Mycobacterium tuberculosis, UniProt P9WMH1 1-230).
T1 sequence: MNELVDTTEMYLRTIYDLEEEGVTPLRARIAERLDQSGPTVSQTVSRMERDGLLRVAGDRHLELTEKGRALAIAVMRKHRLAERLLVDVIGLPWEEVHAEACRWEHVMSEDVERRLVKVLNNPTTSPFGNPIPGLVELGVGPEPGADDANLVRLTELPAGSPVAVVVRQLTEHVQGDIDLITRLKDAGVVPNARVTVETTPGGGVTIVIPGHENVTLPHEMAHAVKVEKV
The data set is described as follows: EMSA; 200 uM Mn2+; 30 pmol IdeR. The conditions noted are these: protein: recombinant; tags: 6xHis (pRSET vector); chain copies: 4; label: 32P end label; blunt. For orientation: Mobility shift assays separate free from complexed probe on a gel.
For B1, the binding result is recorded as “no binding”.
As for B2, the entry is “binds”.
As to B3, the binding result was “binds”.
Then B4, with “binds”.
As for B5, the entry is “binds”; as for B6, “binds”.

The values are drawn from publication PMC524172, “Yellaboina Sailu 1 sailu@cdfd.org.in”.
